Measurements taken from publication PMC5477842 (Science (New York, N.Y.), 2016).

Assays:
[1] = target: calmodulin (UniProt P0DP23 1-149); assay: cryo-EM structure
[2] = target: the molecule itself; assay: cryo-EM structure

- binding result [1]: binds
B1: Truncated rat Eag1 (rEag1Δ; Kv10.1 with residues 773-886 removed) (natural protein, UniProt Q63472 1-962, looked up)
chain: MTMAGGRRGLVAPQNTFLENIVRRSNDTNFVLGNAQIVDWPIVYSNDGFCKLSGYHRAEVMQKSSACSFMYGELTDKDTVEKVRQTFENYEMNSFEILMYKKNRTPVWFFVKIAPIRNEQDKVVLFLCTFSDITAFKQPIEDDSCKGWGKFARLTRALTSSRGVLQQLAPSVQKGENVHKHSRLAEVLQLGSDILPQYKQEAPKTPPHIILHYCVFKTTWDWIILILTFYTAILVPYNVSFKTRQNNVAWLVVDSIVDVIFLVDIVLNFHTTFVGPAGEVISDPKLIRMNYLKTWFVIDLLSCLPYDVINAFENVDEGISSLFSSLKVVRLLRLGRVARKLDHYIEYGAAVLVLLVCVFGLAAHWMACIWYSIGDYEIFDEDTKTIRNNSWLYQLALDIGTPYQFNGSGSGKWEGGPSKNSVYISSLYFTMTSLTSVGFGNIAPSTDIEKIFAVAIMMIGSLLYATIFGNVTTIFQQMYANTNRYHEMLNSVRDFLKLYQVPKGLSERVMDYIVSTWSMSRGIDTEKVLQICPKDMRADICVHLNRKVFKEHPAFRLASDGCLRALAMEFQTVHCAPGDLIYHAGESVDSLCFVVSGSLEVIQDDEVVAILGKGDVFGDVFWKEATLAQSCANVRALTYCDLHVIKRDALQKVLEFYTAFSHSFSRNLILTYNLRKRIVFRKISDVKREEEERMKRKNEAPLILPPDHPVRRLFQRFRQQKEARLAAERGGRDLDDLDVEKGNALTDHTSANHSLVKASVVTVRESPATPVSFYPIPEQTLQATVLEVKHELKEDIKALNAKMTSIEKQLSEILRILMSRGSSQSPQDTCEVSRPQSPESDRDIFGAS
modifications: N-acetyl glucosamine on N388 (density observed); glycosylation sites N388 and N406
- stoichiometry N [2]: 4
